In PMC9273615, “Regulation of AUXIN RESPONSE FACTOR condensation and nucleo-cytoplasmic partitioning” (Nature Communications, 2022):

Experiments:
[1] = target: T1, GST-AFF1 (AUXIN RESPONSE FACTOR F-BOX1, At3g49150) (Arabidopsis thaliana (Mouse-ear cress), UniProt Q9M3B7); assay: GST pull-down with immunoblot
T1 chain: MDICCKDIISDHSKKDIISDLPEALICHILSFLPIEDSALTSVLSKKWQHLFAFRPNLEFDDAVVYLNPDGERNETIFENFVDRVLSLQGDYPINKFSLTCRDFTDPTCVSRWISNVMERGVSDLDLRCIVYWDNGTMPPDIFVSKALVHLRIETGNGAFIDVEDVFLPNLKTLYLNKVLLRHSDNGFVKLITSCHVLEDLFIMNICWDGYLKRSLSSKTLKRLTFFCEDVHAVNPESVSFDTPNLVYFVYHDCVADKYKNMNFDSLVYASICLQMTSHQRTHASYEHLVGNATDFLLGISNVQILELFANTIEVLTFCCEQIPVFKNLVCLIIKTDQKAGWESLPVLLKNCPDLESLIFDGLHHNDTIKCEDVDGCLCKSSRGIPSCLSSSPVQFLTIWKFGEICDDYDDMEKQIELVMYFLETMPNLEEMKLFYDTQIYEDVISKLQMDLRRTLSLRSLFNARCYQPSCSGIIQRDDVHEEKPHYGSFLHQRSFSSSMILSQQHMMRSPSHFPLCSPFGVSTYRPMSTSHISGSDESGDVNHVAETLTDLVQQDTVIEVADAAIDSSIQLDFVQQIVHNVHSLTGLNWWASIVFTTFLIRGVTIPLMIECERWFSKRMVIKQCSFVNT

[2] = target: T2, GST-AFF1 (AUXIN RESPONSE FACTOR F-BOX1, At3g49150) (Arabidopsis thaliana, UniProt Q9M3B7 1-630); assay: pull-down; 2 μg GST fusion immobilised on glutathione agarose, mixed with 2 μg His-ASK1, 4 °C, 2 hr; six washes; immunoblot with anti-His and anti-GST; details: both partners purified
T2 construct: AUXIN RESPONSE FACTOR F-BOX1 (AFF1), F-box protein encoded by At3g49150, Arabidopsis thaliana; also called GST-AFF1 recombinant protein; not shown: GST, N-terminal, kept
T2 sequence (looked up): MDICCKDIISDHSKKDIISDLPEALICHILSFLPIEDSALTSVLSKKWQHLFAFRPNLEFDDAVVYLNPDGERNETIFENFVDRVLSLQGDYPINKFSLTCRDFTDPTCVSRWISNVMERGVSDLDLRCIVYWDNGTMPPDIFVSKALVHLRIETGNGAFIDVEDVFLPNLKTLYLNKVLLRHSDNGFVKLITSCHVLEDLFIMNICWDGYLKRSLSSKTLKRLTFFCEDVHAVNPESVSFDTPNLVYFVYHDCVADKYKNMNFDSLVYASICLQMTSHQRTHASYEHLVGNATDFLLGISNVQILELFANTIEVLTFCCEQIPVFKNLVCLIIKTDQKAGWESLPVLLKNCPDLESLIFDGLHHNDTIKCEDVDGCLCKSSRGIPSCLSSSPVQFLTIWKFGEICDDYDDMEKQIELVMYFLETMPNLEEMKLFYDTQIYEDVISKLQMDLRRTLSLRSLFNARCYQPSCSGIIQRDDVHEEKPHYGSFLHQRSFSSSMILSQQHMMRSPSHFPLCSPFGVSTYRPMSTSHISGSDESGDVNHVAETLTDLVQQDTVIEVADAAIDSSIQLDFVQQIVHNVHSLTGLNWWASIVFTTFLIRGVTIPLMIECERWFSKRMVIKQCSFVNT

B1: His-ASK1 (ARABIDOPSIS SKP1-LIKE 1) (natural protein, UniProt Q39255 1-160, looked up)
chain: MSAKKIVLKSSDGESFEVEEAVALESQTIAHMVEDDCVDNGVPLPNVTSKILAKVIEYCKRHVEAAASKAEAVEGAATSDDDLKAWDADFMKIDQATLFELILAANYLNIKNLLDLTCQTVADMIKGKTPEEIRTTFNIKNDFTPEEEEEVRRENQWAFE
notes: ARABIDOPSIS SKP1-LIKE (ASK1), Arabidopsis thaliana; not shown: His, N-terminal, kept
[1]
  binding result: binds
[2]
  binding result: binds
